# Data: patent US20240150440A1 (LUMEN BIOSCIENCE, published 2024)
# Like-named read-outs stand apart in the source and are kept apart here.
# B1: PP1151 MBP-5HVZ-PAPA-R5d-B5-H6 (VHH)
# VHH: QVQLVESGGGLVQPGGSLRLSCAASGSRDSIVAMHWYRQAPGKGREGVAGITSRWVTYYADSVKGRFTISRDNAKNTVYLQMNSLKPEDTAVYYCNAPVYYDTEWYDIWGQGTQVTVSS
# notes: Form: Dimer
# B2: PP1152 MBP-5HVZ-PAPA-R5d-B6-H6 (VHH)
# VHH: QVQLVESGGGLVQPGGSLRLSCAASGRILAANIVHWYRQAPGKEREGVAGITSGGGSYYADSVKGRFTISRDNAKNTVYLQMNSLKPEDTAVYYCNALGLGQSSLYRSADPYDSWGQGTQVTVSS
# notes: Form: Dimer
# B3: PP1140 MBP-4B0F-PAPA-R5d-B6-H6 (VHH)
# VHH: QVQLVESGGGLVQPGGSLRLSCAASGRILAANIVHWYRQAPGKEREGVAGITSGGGSYYADSVKGRFTISRDNAKNTVYLQMNSLKPEDTAVYYCNALGLGQSSLYRSADPYDSWGQGTQVTVSS
# notes: Form: Heptamer
# B4: PP1141 MBP-4B0F-PAPA-R5d-D4-H6 (VHH)
# VHH: QVQLVESGGGLVQPGGSLRLSCAASGSDFTINAMHWFRQAPGKQREFVATITSTSSTAYRDSVKGRFTISRDNAKNTVYLQMNSLKPEDTAVYYCAAFAVRDADTAGWTARDYWGQGTQVTVSS
# notes: Form: Heptamer
# B5: R5A-B7 (competition ELISA sample) (VHH)
# VHH: QVQLVESGGGLVQPGGSLRLSCAASGAFFSYGAIHWFRQAPGKQREEVAAITSGGSTGYADSVKGRFTISRDNAKNTVYLQMNSLKPEDTAVYYCNAGVVWLPSNAAYNLWGQGTQVTVSS
# B6: MBP-R2B-D5-H6 (VHH)
# VHH: QVQLVESGGGLVQPGGSLRLSCAASGYADEINMVHWYRQAPGKGREFVAAIASGGSTFYADSVKGRFTISRDNAKNTVYLQMNSLKPEDTAVYYCAAIPRPSLSYAHDYAYWGQGTQVTVSS
# notes: monomer
# B7: PP887 MBP-S1b-E7-H6 (VHH)
# VHH: QVQLVESGGGLVQPGGSLRLSCAASGGEFSDNGLHWFRQAPGKQREFVATASSDGSTQYRDSVKGRFTISRDNAKNTVYLQMNSLKPEDTAVYYCTALLMSSAGEYDVWGQGTQVTVSS
# notes: Form: Monomer
# B8: PP888 MBP-S1b-E11-H6 (VHH)
# VHH: QVQLVESGGGLVQPGGSLRLSCAASGSYASIASMHWFRQAPGKEREFVAGVTSGGSTNYGDSVKGRFTISRDNAKNTVYLQMNSLKPEDTAVYYCNALAGANYESQWEEYNYWGQGTQVTVSS
# notes: Form: Monomer
# B9: MBP-5HVZ-R5d-E1-H6 (VHH, not shown: large carriers; small tags and cut ends)
# VHH: QVQLVESGGGLVQPGGSLRLSCAASGSSFSINWMHWFRQAPGKQREGVASINSTGSDYYADSVKGRFTISRDNAKNTVYLQMNSLKPEDTAVYYCAAAITQPMPQGKGAPPGFYYWGQGTQVTVSS
# B10: PP806 MBP-R2B-E6-H6 (VHH)
# VHH: QVQLVESGGGLVQPGGSLRLSCAASGGVTRGNAMAWYRQAPGKQREIVAAIDNGGSHAYGDSVKGRFTISRDNAKNTVYLQMNSLKPEDTAVYYCAVFPDHDSEQASIDRVYWGQGTQVTVSS
# notes: Form: Monomer
# B11: dimeric VHH (VHH-5HVZ-MBP) R2B-E6 (VHH)
# VHH: QVQLVESGGGLVQPGGSLRLSCAASGGVTRGNAMAWYRQAPGKQREIVAAIDNGGSHAYGDSVKGRFTISRDNAKNTVYLQMNSLKPEDTAVYYCAVFPDHDSEQASIDRVYWGQGTQVTVSS
# B12: MBP-5HVZ-R5A-E5-H6 (VHH, not shown: large carriers; small tags and cut ends)
# VHH: QVQLVESGGGLVQPGGSLRLSCAASGYDFDILRMAWFRQAPGKEREMVAAITSAESVNYEDSVKGRFTISRDNAKNTVYLQMNSLKPEDTAVYYCATYDYTDDYGYASWGQGTQVTVSS
# B13: MBP-5HVZ-R5C-B1-H6 (VHH, not shown: large carriers; small tags and cut ends)
# VHH: QVQLVESGGGLVQPGGSLRLSCAASGSGFSNNAMHWYRQAPGKQREGVAGITSGSVSFYADSVKGRFTISRDNAKNTVYLQMNSLKPEDTAVYYCAAVTGSSTGNAGQGYLTWGQGTQVTVSS
# B14: MBP-5HVZ-R5B-G1-H6 (VHH)
# VHH: QVQLVESGGGLVQPGGSLRLSCAASGSIGQIVLVHWFRQAPGKQRELVAGITSPSSTYYADSVKGRFTISRDNAKNTVYLQMNSLKPEDTAVYYCNTELEGKTQGFTGKTVWYDYWGQGTQVTVSS
# B15: PP1150 MBP-5HVZ-PAPA-R5b-G1-H6 (VHH)
# VHH: QVQLVESGGGLVQPGGSLRLSCAASGSIGQIVLVHWFRQAPGKQRELVAGITSPSSTYYADSVKGRFTISRDNAKNTVYLQMNSLKPEDTAVYYCNTELEGKTQGFTGKTVWYDYWGQGTQVTVSS
# notes: Form: Dimer
# B16: PP788 (VHH, not shown: large carriers; small tags and cut ends)
# VHH: QVQLVESGGGLVQPGGSLRLSCAASGSIESINAIHWFRQAPGKAREEVAAITENDVDYYADSVKGRFTISRDNAKNTVYLQMNSLKPEDTAVYYCASLSSGYQYVGFRYWGQGTQVTVSS
# B17: PP1897 Cerberbody (3-S3b-C8) (other, not shown: large carriers)
# chain 1: QVQLVESGGGLVQPGGSLRLSCAASGSIENIERMHWYRQAPGKQRELVAVIDSGGTTRYADSVKGRFTISRDNAKNTVYLQMNSLKPEDTAVYYCAAVWLTNAESTQEYWGQGTQVTVSSHHHHHH
# chain 2: QVQLVESGGGLVQPGGSLRLSCAASGSIENIERMHWYRQAPGKQRELVAVIDSGGTTRYADSVKGRFTISRDNAKNTVYLQMNSLKPEDTAVYYCAAVWLTNAESTQEYWGQGTQVTVSSTVILEYAHRLSQDILSDALQQWASHHHHHHHH
# B18: PP1898 Cerberbody (1-R2B-D5 and 2-S3b-C8) (other, not shown: large carriers; small tags and cut ends)
# VHH 1: QVQLVESGGGLVQPGGSLRLSCAASGSIENIERMHWYRQAPGKQRELVAVIDSGGTTRYADSVKGRFTISRDNAKNTVYLQMNSLKPEDTAVYYCAAVWLTNAESTQEYWGQGTQVTVSS
# VHH 2: QVQLVESGGGLVQPGGSLRLSCAASGYADEINMVHWYRQAPGKGREFVAAIASGGSTFYADSVKGRFTISRDNAKNTVYLQMNSLKPEDTAVYYCAAIPRPSLSYAHDYAYWGQGTQVTVSS
# Tests used:
# [1] = target: T1, recombinant SARS-CoV-2 RBD with C-terminal AviTag (SARS-CoV-2, UniProt P0DTC2 319-541); experiment: ELISA, competition with coated ACE2-Fc for RBD [Cont. 4]
# [2] = target: T1, recombinant SARS-CoV-2 RBD with …; experiment: ELISA, competition with coated ACE2-Fc for RBD [Cont. 5]
# [3] = target: T1, recombinant SARS-CoV-2 RBD with …
# [4] = target: T1, recombinant SARS-CoV-2 RBD with …; experiment: BLI, biotinylated RBD on streptavidin biosensors
# [5] = target: T1, recombinant SARS-CoV-2 RBD with …; experiment: BLI, biotinylated RBD on streptavidin biosensors; OR: over-range [Cont. 6]
# [6] = target: T1, recombinant SARS-CoV-2 RBD with …; experiment: BLI, biotinylated RBD on streptavidin biosensors; OR: over-range [Cont. 7]
# [7] = target: T1, recombinant SARS-CoV-2 RBD with …; remark: listed apart in the source
# [8] = target: T1, recombinant SARS-CoV-2 RBD with …; experiment: BLI, biotinylated RBD on streptavidin biosensors; OR: over-range
# [9] = target: T1, recombinant SARS-CoV-2 RBD with …; experiment: ELISA, competition with coated ACE2-Fc for RBD
# [10] = target: T1, recombinant SARS-CoV-2 RBD with …; remark: listed apart in the source
# [11] = target: T1, recombinant SARS-CoV-2 RBD with …; remark: listed apart in the source
# [12] = target: T1, recombinant SARS-CoV-2 RBD with …; remark: listed apart in the source
# [13] = target: T1, recombinant SARS-CoV-2 RBD with …; experiment: ELISA, competition with coated ACE2-Fc for RBD [Cont. 3]
# [14] = target: T2, SARS-COV-2 Wuhan Reference RBD (SARS-CoV-2, UniProt P0DTC2 319-541); experiment: ELISA, RBD coated
# [15] = target: T2, SARS-COV-2 Wuhan Reference RBD
# [16] = target: T1, recombinant SARS-CoV-2 RBD with …; remark: listed apart in the source
# [17] = target: T1, recombinant SARS-CoV-2 RBD with …; remark: listed apart in the source
binder,measurement,setting,value
B1,IC50,[1],23.1 nM
B2,IC50,[1],4.7 nM
B3,IC50,[2],106 nM
B4,IC50,[2],74.6 nM
B5,Kd,[3],13.1 nM
B6,Kd,[4],82 nM
B7,Kd,[5],~6570 nM
B8,Kd,[6],~5290 nM
B9,Kd,[7],7.98 nM
B10,Kd,[8],~1400 nM
B11,Kd,[4],10.3 nM
same,IC50,[9],17.9 nM
B12,IC50,[10],17.7 nM
same,Kd,[10],31 nM
same,Kd,[11],~31 nM
B13,Kd,[11],10 nM
same,IC50,[12],0.3 nM
same,Kd,[12],9.98 nM
B14,IC50,[13],26.6 nM
B15,IC50,[13],5.2 nM
same,EC50,[14],0.64 nM
B16,EC50,[15],1.56 nM
B17,Kd,[16],0.73 nM
same,koff,[16],0.000382 s⁻¹
same,kon,[16],521000 M⁻¹ s⁻¹
B18,Kd,[17],0.4 nM
same,koff,[17],0.000218 s⁻¹
same,kon,[17],540000 M⁻¹ s⁻¹
